Reference: the supplement of paper PMC10567573
± gives the standard deviation.

Test: protein stability index of a GFP-peptide fusion (GPS, HEK-293T) (PSI 1-6); higher = more stable
[1] = treatment: DMSO, c terminus: a fixed tail appended
[2] = treatment: MLN4924 1 uM, 8 h, c terminus: a fixed tail appended
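Note: 24-mer peptide tiles fused after GFP, lentivirally expressed, FACS-sorted into six equal bins by GFP/DsRed ratio, decoded by Illumina sequencing, PSI is the read-weighted mean bin number.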

Sequence | protein stability index [1] | protein stability index [2] | protein stability index (treatment: DMSO, c terminus: native) | protein stability index (treatment: MLN4924 1 uM, 8 h, c terminus: native)
YITKVSEEVTRLGAQVKELEEKCQ [TRIM15] | 4.07 ± 0.24 | 4.22 ± 0.37 | – | –
KMELGIDLLAYGAKAELPKYKSFN [MYOZ1] | 2.59 ± 0.23 | 2.77 ± 0.24 | – | –
ISLAKGPPGPKGDQGDEGKEGRPG [SCARA5] | 5.24 ± 0.26 | 5.485 ± 0.034 | – | –
VFYCDPCRLRCHPPRGPLAKHRLV [TRIM9] | 2.19 ± 0.34 | 2.36 ± 0.29 | – | –
GAEQPPDLHCVLVTNPHSSQWKDP [GADD45A] | 4.29 ± 0.2 | 4.44 ± 0.12 | – | –
LYPSLNVTSFDSVVPEKLDDLVPK [ALG2] | 4.32 ± 0.14 | 4.42 ± 0.11 | – | –
AGGSSGTTARERPCVRPGVSGSPV [FBF1] | 4.58 ± 0.16 | 4.47 ± 0.32 | – | –
KNEVGGLIKALKIFQEKHVNLLHI [TPH1] | 2.02 ± 0.43 | 2.12 ± 0.011 | – | –
LRRVLDELTLSKTDLEMQIESLNE [KRT13] | 3.12 ± 0.098 | 2.98 ± 0.068 | – | –
LVEAGAHTDMTNKQNKTPLDKSTT [FEM1B] | 5.34 ± 0.29 | 5.27 ± 0.21 | – | –
RPLRSREFPQFEPQRYPACAQMLP [TRAF3IP2] | 3.07 ± 0.44 | 3.44 ± 0.15 | – | –
DENYNLLPHGVNFQDAIFPDTQEN [CCDC3] | 4.92 ± 0.29 | 5.06 ± 0.21 | – | –
PRYREDPCKQCKKKYVKGDVSLCR [FBXO34] | 2.99 ± 0.45 | 3.35 ± 0.24 | – | –
ELERAQHELLLGSLQQQHQADLEL [FBF1] | 4.15 ± 0.21 | 4.49 ± 0.28 | – | –
ETTESQQNGEEGTSTPEDKESGQE [SMARCE1] | 5.61 ± 0.18 | 5.23 ± 0.17 | – | –
NPAVRTAAANAAAGAAENAFRAP [SCAMP3] | – | – | 3.08 ± 0.69 | 3.36 ± 0.55
QELELVLMISENNFLFRNAASTLT [ANKRD40] | 2.91 ± 0.82 | 3.28 ± 0.74 | – | –
AQTELLCCLVKMESLEPDAQVLML [FANCE] | 2.61 ± 0.68 | 2.34 ± 0.16 | – | –
ITVTQSHLVIQNLFEGMIWFLVPI [CDS1] | 3.25 ± 0.45 | 3.24 ± 0.34 | – | –
ATQQARKRNFISSKSKQPAGHRRP [C22orf31] | 4.58 ± 0.27 | 4.71 ± 0.31 | – | –
SSTNFAMKRDVQEGQARCLAHLGR [C8orf76] | 3.66 ± 0.058 | 3.68 ± 0.28 | – | –
ISQEEFARQLQLSDPQTVAGAFGY [LPCAT4] | 3.41 ± 0.43 | 3.09 ± 0.41 | – | –

Sequence | protein stability index [1] | protein stability index [2] | protein stability index (treatment: DMSO, c terminus: native) | protein stability index (treatment: MLN4924 1 uM, 8 h, c terminus: native)
QVHRQGERRRELVRSQTLPRTSEA [SMTNL2] | 4.957 ± 0.024 | 4.98 ± 0.16 | – | –
CEKRCSYCNFNKYIPRRLEEAAMQ [RSAD1] | 2.4 ± 0.028 | 2.6 ± 0.31 | – | –
YFYHRETENEEQTQLTQNAVSCPY [KCNA4] | 3.88 ± 0.34 | 3.96 ± 0.17 | – | –
KLLNRCCHLFSTYVASHKIEKEEQ [ACBD3] | 2.21 ± 0.1 | 2.23 ± 0.28 | – | –
IYRKREEKRNAGNAVRSAMKSEEQ [KMT5A] | 4.47 ± 0.17 | 4.39 ± 0.25 | – | –
LKDDIYIRYQSFNNQSDLEKEMQK [PRIM1] | 4.41 ± 0.08 | 4.27 ± 0.26 | – | –
SKSCMRAVLEYLYTGMFTSSPDLD [RHOBTB2] | 2.28 ± 0.039 | 2.05 ± 0.49 | – | –
AKYPHDVVNHLSCDEARNHYGGVV [SPACA9] | 3.5 ± 0.27 | 3.58 ± 0.082 | – | –
SNPGPVPGSSSGPVLGSSSGAGHG [SPAG8] | 5.051 ± 0.027 | 4.7 ± 0.35 | – | –
GAFDSQSTVKDCATIFALSTMTSS [ATL3] | 3.01 ± 0.25 | 3.19 ± 0.27 | – | –
DEPTFKVLLKTADPRYELPSRKYI [ZBED1] | 2.81 ± 0.26 | 3.19 ± 0.4 | – | –
KSSLIWSYPAGSLTFPVRPFFYTG [TRIM43] | 2.19 ± 0.26 | 2.08 ± 0.18 | – | –
GWVSGQLRYSVVEESEPGTLVGNV [PCDHGC5] | 3.03 ± 0.24 | 3.07 ± 0.22 | – | –
KLFDDCTQQFKAEKLKEKLKMKER [PPP2R5C] | 3.43 ± 0.14 | 3.71 ± 0.15 | – | –
TWRHRETLIIAVLVSASIANLWLW [FATE1] | 3.2 ± 0.37 | 2.77 ± 0.26 | – | –
KYENELALRQSVEADINGLRRVLD [KRT13] | 3.57 ± 0.17 | 3.65 ± 0.29 | – | –
AAAATVLLRTARVRRECWFLPTAL [SLC19A2] | 2.51 ± 0.54 | 2.28 ± 0.42 | – | –
RPKLSEEQQRIIAILLDAHHKTYD [VDR] | 2.58 ± 0.28 | 2.75 ± 0.41 | – | –
LFGFSAVSIMYLVLVLAVQVHAWQ [JAGN1] | 3.8 ± 0.15 | 2.97 ± 0.39 | – | –
RNEGVSSVLLGASNADQLMENIGA [KCNAB2] | 4.25 ± 0.09 | 4.42 ± 0.12 | – | –
NVLVDPSARIGQNCSIGPNVSLGP [GMPPB] | 3.61 ± 0.088 | 3.43 ± 0.25 | – | –
DLDANLRKLNSRLFVIRGQPADVF [CRY1] | 2.07 ± 0.29 | 2.55 ± 0.4 | – | –

Sequence | protein stability index [1] | protein stability index [2] | protein stability index (treatment: DMSO, c terminus: native) | protein stability index (treatment: MLN4924 1 uM, 8 h, c terminus: native)
LGSDYEQPLEVKNNSNLQRMGSSE [CDC25A] | 5.01 ± 0.19 | 4.94 ± 0.57 | – | –
QLILFGLSNQLAVTFREENTIAFR [MCOLN1] | 2.65 ± 0.49 | 2.33 ± 0.64 | – | –
GGGGGGGGKSGGIVISPFRLEELT [CCDC6] | 3.34 ± 0.12 | 3.59 ± 0.41 | – | –
PSLDSRQRLDYEREIQPTAILSLD [SPRY1] | 4.39 ± 0.16 | 4.53 ± 0.22 | – | –
GLDPEPLPLMDLCRRSIRSALGRQ [SPSB4] | 3.79 ± 0.23 | 3.75 ± 0.18 | – | –
GSAEKQAGEAHMAADGETNGSCEN [EHMT1] | 5.49 ± 0.37 | 5.6 ± 0.2 | – | –
LLQRRKRENMSDGDTSATESGDEV [KMT2E] | 5.52 ± 0.17 | 5.32 ± 0.38 | – | –
FGIKCAKCQVGFSSSDLVMRARDS [ISL2] | 2.37 ± 0.32 | 2.54 ± 0.58 | – | –
LKEPLHKALQMLLSQPVTYQAFRE [BCL2L13] | 2.76 ± 0.085 | 2.77 ± 0.4 | – | –
TSDLGTTDVQKKKLVDAIVSGDTS [RIPK4] | 4.97 ± 0.21 | 5.09 ± 0.12 | – | –
RDLKLCRFVFADRERKKLVLENLE [TRIB3] | 2.36 ± 0.23 | 2.51 ± 0.25 | – | –
KFLASHFPNRTDQQCQYRWLRVLN [MYBL2] | 2.19 ± 0.46 | 2.2 ± 0.29 | – | –
GKPLAGIYRKREEKRNAGNAVRSA [KMT5A] | 4.24 ± 0.35 | 4.39 ± 0.19 | – | –
HLGKEQSRRDDLEALGHMFMYFLR [CSNK1G1] | 2.61 ± 0.24 | 2.25 ± 0.26 | – | –
MLYAKPPPTINGIKGLQRKERLKP [KRT34] | 3.1 ± 0.28 | 3.43 ± 0.19 | – | –
IENYKKQTRNGLGKDHEILRRRIE [FUT8] | 3.67 ± 0.24 | 3.87 ± 0.24 | – | –
MDSAGQDINLNSPNKGLLSDSMTD [TPD52L2] | 5.32 ± 0.2 | 5.25 ± 0.2 | – | –
FSDLNSTRGDADMYDLPKKEDALL [EMD] | 4.77 ± 0.24 | 4.9 ± 0.05 | – | –
LRDIRAQYESIAAKNLQEAEEWYK [PRPH] | 4.24 ± 0.24 | 4.33 ± 0.41 | – | –
GIGYNGMPNGCSDDVLPWRRTAEN [DCTD] | 3.03 ± 0.24 | 2.87 ± 0.1 | – | –
DGRQLRKMLRKEAAARCVVLDCRP [DUSP5] | 2.69 ± 0.24 | 3.07 ± 0.23 | – | –
